# In patent US20260022195A1:
# T1: human C1s (active form) (human) (UniProt P09871)
# T1 sequence 1: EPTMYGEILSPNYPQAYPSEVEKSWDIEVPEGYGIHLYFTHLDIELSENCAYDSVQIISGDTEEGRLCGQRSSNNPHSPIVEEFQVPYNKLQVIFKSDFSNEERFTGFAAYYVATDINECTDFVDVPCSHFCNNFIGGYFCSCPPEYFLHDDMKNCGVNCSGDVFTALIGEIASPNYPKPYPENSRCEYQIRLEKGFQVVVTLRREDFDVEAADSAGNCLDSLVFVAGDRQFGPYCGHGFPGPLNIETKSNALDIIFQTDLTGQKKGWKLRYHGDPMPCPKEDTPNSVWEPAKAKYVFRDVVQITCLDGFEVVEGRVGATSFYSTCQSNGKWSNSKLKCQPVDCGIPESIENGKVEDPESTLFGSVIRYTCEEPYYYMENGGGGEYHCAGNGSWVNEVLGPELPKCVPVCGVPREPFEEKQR
# T1 sequence 2: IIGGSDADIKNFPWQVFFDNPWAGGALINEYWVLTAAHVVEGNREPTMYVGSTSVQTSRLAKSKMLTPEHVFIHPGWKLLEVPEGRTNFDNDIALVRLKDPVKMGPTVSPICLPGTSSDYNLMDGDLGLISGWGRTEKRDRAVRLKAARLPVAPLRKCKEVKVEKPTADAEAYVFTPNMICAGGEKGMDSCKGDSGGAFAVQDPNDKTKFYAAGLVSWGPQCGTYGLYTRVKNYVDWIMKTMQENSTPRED
# B1: TNT009 (antibody, from another filing, V domains shown)
# VH: EVQLVESGGGLVKPGGSLRLSCAASGFTFSNYAMSWVRQAPGKGLEWVATISSGGSHTYYLDSVKGRFTISRDNSKNTLYLQMNSLRAEDTALYYCARLFTGYAMDYWGQGTLVTVSS
# VL: QIVLTQSPATLSLSPGERATMSCTASSSVSSSYLHWYQQKPGKAPKLWIYSTSNLASGVPSRFSGSGSGTDYTLTISSLQPEDFATYYCHQYYRLPPITFGQGTKLEIKR
# B2: TNT020 (antibody, from another filing, V domains shown)
# VH: QVQLVQSGAEVKKPGASVKLSCTASGFNIKDDYIHWVKQAPGQGLEWIGRIDPADGHTKYAPKFQVKVTITADTSTSTAYLELSSLRSEDTAVYYCARYGYGREVFDYWGQGTTVTVSS
# VL: DIVLTQSPDSLAVSLGERATISCKASQSVDYDGDSYMNWYQQKPGQPPKILIYDASNLESGIPARFSGSGSGTDFTLTISSLEPEDFAIYYCQQSNEDPWTFGGGTKVEIKR
# Target: T1, human C1s (active form) (human)
# Experiment: cell-based or functional assay
binder,measurement,value
B1,"IC50 of inhibition of C3b deposition on antibody-sensitized human RBCs (flow cytometry, 5% human serum)",5 nM
B2,"IC50 of inhibition of C3b deposition on antibody-sensitized human RBCs (flow cytometry, 5% human serum)",6.5 nM
